Source: patent US20060073133A1 (published 2006)

How the values were obtained:
[1] = molecular target: human sialoadhesin factor-3 (SAF-3), on cells (human) (UniProt Q9Y286); experiment: flow cytometry on monocyte-derived DCs cultured 7 days with mAb 12B1
SAF-2 = SAF-2 (UniProt Q9NYZ4 17-363, limits assumed); experiment: displacement immunoassay
Sequence of SAF-2 (Q9NYZ4 17-363 limits assumed): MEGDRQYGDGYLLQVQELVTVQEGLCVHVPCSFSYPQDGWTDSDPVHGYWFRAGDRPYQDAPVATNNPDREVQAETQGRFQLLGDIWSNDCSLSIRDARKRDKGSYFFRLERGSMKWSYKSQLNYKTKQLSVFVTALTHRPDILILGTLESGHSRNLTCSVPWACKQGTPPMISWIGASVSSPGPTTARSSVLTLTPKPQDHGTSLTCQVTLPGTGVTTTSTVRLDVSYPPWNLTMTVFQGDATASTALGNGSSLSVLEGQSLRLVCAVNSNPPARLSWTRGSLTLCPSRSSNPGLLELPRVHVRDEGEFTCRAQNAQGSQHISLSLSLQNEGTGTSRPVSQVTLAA

Sequence of human sialoadhesin factor-3 (SAF-3), on cells (human) (Q9Y286 19-467 L192P/I393V limits assumed): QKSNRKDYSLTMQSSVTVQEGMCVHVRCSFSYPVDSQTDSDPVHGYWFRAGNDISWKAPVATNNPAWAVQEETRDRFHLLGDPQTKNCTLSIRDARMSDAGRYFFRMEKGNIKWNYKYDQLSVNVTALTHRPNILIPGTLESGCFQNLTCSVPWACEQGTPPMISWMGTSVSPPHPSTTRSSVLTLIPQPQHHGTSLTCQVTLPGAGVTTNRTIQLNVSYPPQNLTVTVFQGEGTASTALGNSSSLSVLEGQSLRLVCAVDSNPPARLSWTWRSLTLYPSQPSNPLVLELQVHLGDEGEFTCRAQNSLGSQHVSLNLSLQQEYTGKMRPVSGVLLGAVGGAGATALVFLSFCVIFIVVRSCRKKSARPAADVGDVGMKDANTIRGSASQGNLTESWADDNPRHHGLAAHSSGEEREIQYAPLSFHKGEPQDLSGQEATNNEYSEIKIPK

Row | Mean Fluorescent Intensity [1] | Molecule | binding result (SAF-2)
1 | 3.5 MFI | Isotype Control (antibody) | 
2 |  | monoclonal antibody 12B1 (antibody, IgG2a, V domains shown, also called mAb 12B1; SAF-3 mAb (clone 12B1)) VH: QIQLQQSGPELVKPGASVKVSCKASGYSFTDYNIYWVKQSHGKSLEWIGYIDPYNDDTGYNQKFKGKATLTVDKSSSTAFMHLNSLTSEDSAVYYCASEGIHWGQGTLVTVS VL: DIVMTQSQKFMSTSVGDRVSVTCKASQNVGTNVAWFQQKPGQSPKALIYSASYRYNGVPDRFTGSGSGTDFTLTISNVQSEDLADYFCQQYNIYPYTFGGGTKLEIK | no binding (tested: max. displacement 5%)
